Data as given in patent US20240409638A1 (AVACTA LIFE SCIENCES, published 2024).
Values joined by “and” are separate entries in the source; they are usually repeats but may differ in a detail not shown here. Identical values can stand only once.

How the values were obtained:
[1] = biological target: T1, human PD-L1-Fc (R&D Systems) (human, UniProt Q9NZQ7 19-239); assay: PD-L1/PD-1 competition ELISA (binding inhibition %): human PD-1-Fc coated, AFFIMER preincubated with huPD-L1-Fc at its EC80, bound PD-L1 detected; blocked ligand: human PD-1-Fc. The table column is headed 'EC50 (nM)'; the text calls the values IC50
T1 construct: Bought reagent; also called huPD-L1-Fc; huPD-L1; not shown: Fc part of the bought fusion
Description: Plates were washed two times with washing buffer (PBS, Tween 20 0.1%) with a plate washer and saturated with Casein 5% (Sigma) in PBS for 90 minutes at room temperature (25±1° C.). […] Plates were washed 3 times as described previously. […] Plates were washed 3 times as described previously and Streptavidin-HRP was added, and the plates were incubated for 30 minutes at room temperature (25±1° C.). Plates were washed a last time and the substrate (TMB; Pierce Thermo-Scientific) was added to the plate. After 10 minutes, the reaction was stopped using an acidic solution and the plates were read at absorbance 450-630 nm. The IC₅₀ was then calculated using the interpolated non-linear four-parameters standard curve.

[2] = biological target: T2, PD-L1 on cells (NCI-H441 cells; aAPC PD-L1/CHO-K1 cells, Promega) (human, UniProt Q9NZQ7 19-290); assay: flow cytometry, % positive cells, NCI-H441 cells (endogenous PD-L1)
T2 construct: whole, on cells; also called human PD-L1-expressing CHO-K1 cells; H441 cells endogenously expressing PD-L1
Description: (§1) Lung cancer cell line (NCI-H441 (ATCC), CHO-K1 recombinant cell line overexpressing PD-L1 aAPC/CHO-K1 (Promega J1252)) and a negative cell line (CHO-K1, ATCC) were used to assess AFFIMER® agent binding capacity to PD-L1 by flow cytometry.
(§2) Briefly, 50 000 cells were added to each well of a 96-well microplate. After this step and each subsequent step, cells were washed twice with PBS+2 mM EDTA using 350g centrifugation for 3 minutes at 4° C. All steps were performed at 4° C. using assay buffer comprising 5% FBS, 2 mM EDTA and 0.05% sodium azide in PBS unless otherwise stated. Independent AFFIMER® agent dilutions were prepared in duplicate and added to the plates. […] Fixation was performed for 10 minutes at 4° C. with Fixation Buffer (Bio-techne FC004). Cells were resuspended in 100 ul assay buffer prior the acquisition of the data. 5000 events were collected by Flow cytometry (Millipore Guava 12HT). The results were gated on live cells and singlets (SSC-H vs SSC-A). The percentage of cells expressing PD-L1 bound by the AFFIMER® agent (positive cells) was determined by using as negative control (background) where the wells were stained with the AF488 conjugated secondary antibody only without AFFIMER® agent. The average of the duplicate wells was used to calculate EC₅₀ using a four-parameter non-linear regression curve fit using Graphpad Prism software. […]

[3] = biological target: T1, human PD-L1-Fc (R&D Systems); assay: human PD-L1-Fc/HSA bridging ELISA: huPD-L1-Fc coated, AFFIMER titrated with 10 µM HSA, detection with HRP-conjugated anti-HSA antibody (the signal needs PD-L1 and HSA bound at once)
Description: After saturation with 5% casein/PBS buffer, the plates were washed and a dilution of AFFIMER® polypeptides or controls was incubated with HSA at a final concentration of 10 μM for 90 minutes. Plates were then washed, and a […] polyclonal antibody, anti-HSA (HRP-conjugated) (Abcam), was added for 90 minutes. After a last washing step, TMB was added for the development of the experiment and the plates were read at 450 nm. The EC₅₀ was then calculated using the interpolated non-linear four-parameters standard curve (FIG. 10).

[4] = biological target: T2, PD-L1 on cells (NCI-H441 cells; aAPC …); assay: cell-based or functional assay
[5] = biological target: T1, human PD-L1-Fc (R&D Systems); assay: SPR (Biacore 8K): human PD-L1-Fc amine-coupled on a CM5 chip, AFFIMER as analyte, 1:1 Langmuir fit
[6] = biological target: T3, human serum albumin (HSA) (human, UniProt P02768 25-609); assay: SPR (Biacore 8K): HSA amine-coupled on a CM5 chip, AFFIMER as analyte, pH 6.0, 1:1 Langmuir fit
T3 construct: The assays used bought HSA (Sigma #A37812 in the SPR work); also called HuSA
Description: (§3) For the HSA binding kinetic analysis, HSA (Sigma #A37812) was immobilized on a CM5 chip surface using amine coupling in 10 mM sodium acetate (pH 5.0) (Cytvia). […] The chip surface was regenerated with 3 mM NaOH for 20 seconds at a flow rate of 20 μl/min. The kinetic data was blank subtracted and fit to a 1:1 Langmuir binding model (BIAcore evaluation software; Cytiva).

[7] = biological target: T1, human PD-L1-Fc (R&D Systems); assay: human PD-L1-Fc binding ELISA: huPD-L1-Fc coated, anti-cystatin A detection, no HSA in the assay buffer
Description: (§4) Plates were washed and AFFIMER® polypeptides were detected using streptavidin-HRP for 30 min. After the last washing step, the TMB substrate was added for the development of the experiment and plates were read at 450 nm. The EC₅₀ was then calculated using the interpolated non-linear four-parameters standard curve.

[8] = biological target: T2, PD-L1 on cells (NCI-H441 cells; aAPC …); assay: flow cytometry on NCI-H441 cells endogenously expressing PD-L1, anti-cystatin A antibody and AF488 secondary antibody, % positive cells
[9] = biological target: T3, human serum albumin (HSA); assay: HSA binding ELISA: HSA coated, bound AFFIMER detected with biotinylated anti-cystatin A antibody and streptavidin-HRP
Description: as §4

[10] = biological target: T2, PD-L1 on cells (NCI-H441 cells; aAPC …); assay: flow cytometry, % positive cells, aAPC PD-L1/CHO-K1 cells (overexpressing PD-L1)
Description: as §1, §2

[11] = biological target: T3, human serum albumin (HSA); assay: SPR (Biacore 8K): HSA amine-coupled on a CM5 chip, AFFIMER as analyte, pH 7.4, 1:1 Langmuir fit
Description: as §3

[12] = biological target: T1, human PD-L1-Fc (R&D Systems); assay: human PD-L1-Fc binding ELISA: huPD-L1-Fc coated, anti-cystatin A detection, with 10 µM HSA in the assay buffer
Description: as §4

[13] = biological target: T3, human serum albumin (HSA); assay: HSA binding ELISA: HSA coated, anti-cystatin A detection
[14] = biological target: T3, human serum albumin (HSA); assay: SPR (Biacore) kinetics: HSA immobilised on a CM5 chip, AFFIMER as analyte, pH 7.4
[15] = biological target: T1, human PD-L1-Fc (R&D Systems); assay: SPR (Biacore) kinetics: human PD-L1-Fc immobilised on a CM5 chip, AFFIMER as analyte
[16] = biological target: T2, PD-L1 on cells (NCI-H441 cells; aAPC …); assay: flow cytometry on PD-L1 expressing cells

T1 sequence (Q9NZQ7 19-239 limits assumed): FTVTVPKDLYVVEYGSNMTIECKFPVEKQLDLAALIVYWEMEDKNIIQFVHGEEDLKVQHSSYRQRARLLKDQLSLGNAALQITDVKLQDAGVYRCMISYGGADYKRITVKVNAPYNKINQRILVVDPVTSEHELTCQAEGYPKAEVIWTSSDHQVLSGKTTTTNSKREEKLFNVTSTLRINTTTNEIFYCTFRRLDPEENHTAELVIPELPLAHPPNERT
T2 sequence (Q9NZQ7 19-290): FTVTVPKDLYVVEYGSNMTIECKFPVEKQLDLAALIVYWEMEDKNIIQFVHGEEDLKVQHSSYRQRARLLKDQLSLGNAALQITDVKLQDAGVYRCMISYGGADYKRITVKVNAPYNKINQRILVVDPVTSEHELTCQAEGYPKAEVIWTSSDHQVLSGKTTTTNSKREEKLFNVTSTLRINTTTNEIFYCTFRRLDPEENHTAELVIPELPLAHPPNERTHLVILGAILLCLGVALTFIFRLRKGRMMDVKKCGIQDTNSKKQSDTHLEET
T3 sequence (P02768 25-609): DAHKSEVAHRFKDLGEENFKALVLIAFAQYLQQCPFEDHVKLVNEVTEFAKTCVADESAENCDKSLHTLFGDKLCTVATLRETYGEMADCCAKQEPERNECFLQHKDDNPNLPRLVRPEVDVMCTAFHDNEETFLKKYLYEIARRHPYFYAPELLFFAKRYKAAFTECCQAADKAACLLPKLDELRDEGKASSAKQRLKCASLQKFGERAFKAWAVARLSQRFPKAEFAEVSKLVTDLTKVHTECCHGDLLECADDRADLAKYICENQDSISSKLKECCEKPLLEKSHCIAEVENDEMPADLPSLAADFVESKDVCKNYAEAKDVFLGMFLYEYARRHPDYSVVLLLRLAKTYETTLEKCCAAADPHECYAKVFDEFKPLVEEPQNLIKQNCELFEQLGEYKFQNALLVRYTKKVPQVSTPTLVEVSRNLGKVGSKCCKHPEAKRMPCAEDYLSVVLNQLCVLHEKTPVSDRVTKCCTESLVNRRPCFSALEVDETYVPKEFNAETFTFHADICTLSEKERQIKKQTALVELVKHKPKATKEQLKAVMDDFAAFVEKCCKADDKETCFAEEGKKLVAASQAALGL

Binder	Kd [6] [pM]	koff [6] [s⁻¹]	kon [6] [M⁻¹ s⁻¹]	EC50 [9] [pM]	Kd [11] [pM]	koff [11] [s⁻¹]	kon [11] [M⁻¹ s⁻¹]	Kd [14] [pM]	koff [14] [s⁻¹]	kon [14] [M⁻¹ s⁻¹]	Kd [15] [pM]	koff [15] [s⁻¹]	kon [15] [M⁻¹ s⁻¹]	binding result [16]	further results
Clone 80 XT34 (anti-PD-L1 type III AFFIMER® XT in-line fusion monomer XT) (designed binder, Made in E. coli; LC/MS found a +42-43 Da species, assigned as acetylated; also called XT34_1; XT34_2) MIPGGLSEAKPATPEIQEIVDKVKPQLEEKTGETYGKLEAVQYKTQVVRRKHFPQWPGTNYYIKVRAGDNKYMHLKVFKSLDLQPREVFQEDLVLTGYQVDKNKDDELTGFAEAAAKEAAAKEAAAKEAAAKEAAAKEAAAKMIPRGLSEAKPATPEIQEIVDKVKPQLEEKTNETYGKLEAVQYKTQVLANFFQRRWPGSTNYYIKVRAGDNKYMHLKVFNGPWKFRNTDRGADRVLTGYQVDKNKDDELTGFHHHHHH	3360	0.00271	808000	20	5010	0.00364	727000								IC50 [1]: 2300 pM; EC50 [2]: 640 pM and 1280 pM; EC50 [3]: 560 pM; half-maximal concentration of PD-1/PD-L1 blockade (% of inhibition, NFAT-luciferase reporter cells; IC50) [4]: 105 nM; Kd [5]: 224 pM; EC50 [7]: 20 pM; EC50 (read off the curve) [8]: ~1000 pM; EC50 [10]: 100 pM; EC50 [12]: 30 pM
HSA-41 (anti-serum albumin AFFIMER® polypeptide, monomer) (designed binder, No tags are stated; also called HSA-41 monomer; XT polypeptide) MIPRGLSEAKPATPEIQEIVDKVKPQLEEKTNETYGKLEAVQYKTQVLANFFQRRWPGSTNYYIKVRAGDNKYMHLKVFNGPWKFRNTDRGADRVLTGYQVDKNKDDELTGF								1070	0.00436	4.06e+06					EC50 [13]: 850 pM
Clone 80 XT41 (designed binder, One Clone 80 and two HSA-41 units joined by flexible (G4S)6 linkers; Made in E. coli; No tag is stated for this construct) MIPGGLSEAKPATPEIQEIVDKVKPQLEEKTGETYGKLEAVQYKTQVVRRKHFPQWPGTNYYIKVRAGDNKYMHLKVFKSLDLQPREVFQEDLVLTGYQVDKNKDDELTGFGGGGSGGGGSGGGGSGGGGSGGGGSGGGGSMIPRGLSEAKPATPEIQEIVDKVKPQLEEKTNETYGKLEAVQYKTQVLANFFQRRWPGSTNYYIKVRAGDNKYMHLKVFNGPWKFRNTDRGADRVLTGYQVDKNKDDELTGFGGGGSGGGGSGGGGSGGGGSGGGGSGGGGSMIPRGLSEAKPATPEIQEIVDKVKPQLEEKTNETYGKLEAVQYKTQVLANFFQRRWPGSTNYYIKVRAGDNKYMHLKVFNGPWKFRNTDRGADRVLTGYQVDKNKDDELTGF								180	0.00189	1.05e+07	172	0.000212	1.24e+06		
DC XT46 (trimer in-line fusion XT control) (designed binder) MIPGGLSEAKPATPEIQEIVDKVKPQLEEKTGETYGKLEAVQYKTQVVGGGGGGGGGGTNYYIKVRAGDNKYMHLKVFKSLGGGGGGGGGEDLVLTGYQVDKNKDDELTGFAEAAAKEAAAKEAAAKEAAAKEAAAKEAAAKMIPGGLSEAKPATPEIQEIVDKVKPQLEEKTGETYGKLEAVQYKTQVVGGGGGGGGGGTNYYIKVRAGDNKYMHLKVFKSLGGGGGGGGGEDLVLTGYQVDKNKDDELTGFAEAAAKEAAAKEAAAKEAAAKEAAAKEAAAKMIPRGLSEAKPATPEIQEIVDKVKPQLEEKTNETYGKLEAVQYKTQVLANFFQRRWPGSTNYYIKVRAGDNKYMHLKVFNGPWKFRNTDRGADRVLTGYQVDKNKDDELTGF	1280	0.00205	1.61e+06	40	1450	0.00259	1.79e+06							no binding	
Clone 80 XT40 (designed binder, HSA-41 sits in the middle position between two Clone 80 units, joined by rigid A(EAAAK)6 linkers; Made in E. coli; No tag is stated for this construct) MIPGGLSEAKPATPEIQEIVDKVKPQLEEKTGETYGKLEAVQYKTQVVRRKHFPQWPGTNYYIKVRAGDNKYMHLKVFKSLDLQPREVFQEDLVLTGYQVDKNKDDELTGFAEAAAKEAAAKEAAAKEAAAKEAAAKEAAAKMIPRGLSEAKPATPEIQEIVDKVKPQLEEKTNETYGKLEAVQYKTQVLANFFQRRWPGSTNYYIKVRAGDNKYMHLKVFNGPWKFRNTDRGADRVLTGYQVDKNKDDELTGFFAEAAAKEAAAKEAAAKEAAAKEAAAKEAAAKMIPGGLSEAKPATPEIQEIVDKVKPQLEEKTGETYGKLEAVQYKTQVVRRKHFPQWPGTNYYIKVRAGDNKYMHLKVFKSLDLQPREVFQEDLVLTGYQVDKNKDDELTGF								1540	0.00273	1.77e+06	66.8	9.33e-05	1.4e+06		
DC XT45 (dimer in-line fusion XT control) (designed binder) MIPGGLSEAKPATPEIQEIVDKVKPQLEEKTGETYGKLEAVQYKTQVVGGGGGGGGGGTNYYIKVRAGDNKYMHLKVFKSLGGGGGGGGGEDLVLTGYQVDKNKDDELTGFAEAAAKEAAAKEAAAKEAAAKEAAAKEAAAKMIPRGLSEAKPATPEIQEIVDKVKPQLEEKTNETYGKLEAVQYKTQVLANFFQRRWPGSTNYYIKVRAGDNKYMHLKVFNGPWKFRNTDRGADRVLTGYQVDKNKDDELTGF	7360	0.00276	375000	20	1080	0.00272	2.52e+06							no binding	
